Consider 15 molecules from patent publication US20140072986, “AMYLOID PROTEIN OLIGOMER-BINDING APTAMER” (NATIONAL UNIVERSITY CORPORATION TOKYO UNIVERSITY OF …, published 2014).

Usually Kd stands for the free concentration of one partner at which half of the binding sites on the other are occupied at equilibrium, for simple one-to-one binding.

In series [1] the target is T1, amyloid beta 1-40 oligomer (UniProt P05067 P05067:672-711). Nature of the series: ELONA; signal from 1 nM versus 10 nM for T-SO530; also strong spot in blotting FIG. 6. Particulars: tags: Peptide Institute peptide; oligomerised from HFIP/water; chain copies: oligomer (stated); label: 5'-FITC. How it is done:
(§1) 100 μL of 100 μM of an Aβ oligomer solution or PBS buffer was added to each well of MaxiSorp (registered trademark) plate (Nunc Co., Ltd) and incubated at 37° C. for 1.5 hours to immobilize the Aβ oligomer on the wells. Blocking of each well was performed with a 2% (w/v) BSA solution (TBS-T: 25 mM Tris-HCl, pH 7.4, 0.15M NaCl, 0.005M KCl, 0.05% Tween-20) to produce an Aβ oligomer-immobilized plate.
(§2) To each well of the Aβ oligomer-immobilized plate was added the each FITC-labeled aptamer prepared in a concentration of 1 nM, 2.5 nM, or 10 nM, and incubation at room temperature for 60 minutes was carried out. After washing the wells, an HRP-modified anti-FITC antibody (Cosmo BiO Co., Ltd) was added to the wells and incubation was performed at room temperature. After washing the wells, an HRP-luminescent substrate was added to detect the binding of each aptamer to the oligomer by chemiluminescence. FIG. 5 illustrates the results.

Series [2] addresses T1, amyloid beta 1-40 oligomer. As to the kind of experiment: aptamer blotting, 500 nM. Particulars: tags: Peptide Institute peptide; oligomerised from HFIP/water; chain copies: oligomer (stated); label: 5'-FITC; G4. How it is done:
(§3) α-synuclein monomer, oligomer, and fibril (1 μg) was immobilized on a nitrocellulose membrane and dried. Then, the membrane was incubated with 4% skim milk prepared using TBS-T (25 mM Tris-HCl, pH 7.4, 0.15 M NaCl, 0.005 M KCl, 0.05% Tween-20) at room temperature for 1 hour for blocking. After that, the membrane was washed with a sufficient amount of TBS-T (2 min×twice and 10 min×one time). The obtained plural oligonucleotides modified with FITC at the 5′ end (f.c. 100 nM) were folded, and the DNA and the membrane were incubated at room temperature for 1 hour. Next, the membrane was washed with a sufficient amount of TBS-T (2 min×twice, 10 min×one time, and 5 min×twice). After that, an HRP-modified anti-FITC antibody diluted to 1000 times with TBS-T and the membrane were incubated at room temperature for 1 hour and the membrane was washed with a sufficient amount of TBS-T (2 min×twice, 10 min×one time, and 5 min×twice). ECL Plus Western blotting detection reagents (GE Healthcare Ltd.) were added to the membrane, and HRP chemiluminescence was detected by TYPHOON 8600 to observe the binding of the DNA to the protein.
Spot intensities of portions with the immobilized α-Syn oligomer were analyzed to create a calibration curve, whereby an oligomer concentration included in the Aβ₁₋₄₀ oligomer sample was roughly estimated. After that, the Aβ₁₋₄₀ oligomer was immobilized on a nitrocellulose membrane in such a manner that the A11 has the same level of spot intensity, and aptamer blotting was performed using 500 nM of each aptamer. As a control, the A11 was used to perform the same experiment.

The target in series [3] is PQQ-dependent glucose dehydrogenase (PQQGDH) (UniProt P13650 P13650:25-478). As to the kind of experiment: aptamer blotting, 5 pmol protein. As to conditions: label: 5'-FITC; G4. Here is the method:
as §3
(§4) On the same nitrocellulose membrane, 5 pmol of each of glucose dehydrogenase (PQQGDH) dependent on the coenzyme PQQ, a C-reactive protein (CRP) (Polyscience Corp.), luciferase, and an IgG antibody (Sigma Aldrich Company), and 0.5 μg of α-synuclein oligomer were immobilized. Using the membrane, specificity evaluation was performed by an aptamer blotting method.

The target in a further series is T2, C-reactive protein (CRP) (UniProt P02741 P02741:19-224).
T2 sequence: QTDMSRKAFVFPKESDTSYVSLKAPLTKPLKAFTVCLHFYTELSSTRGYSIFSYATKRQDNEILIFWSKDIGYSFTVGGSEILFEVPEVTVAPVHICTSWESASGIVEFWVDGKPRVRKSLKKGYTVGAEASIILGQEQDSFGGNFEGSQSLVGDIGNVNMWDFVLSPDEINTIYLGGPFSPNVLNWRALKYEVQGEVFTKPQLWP
Nature of the series: aptamer blotting, 5 pmol protein. As to conditions: tags: Polyscience Corp; chain copies: 5; label: 5'-FITC; G4. How it is done:
as §3, §4

For series [4], the target named is T3, alpha-synuclein oligomer (UniProt P37840 P37840:1-140). As to the kind of experiment: aptamer blotting; did not retain binding of T-SO504.
Series [5] deals with T3, alpha-synuclein oligomer. As to the kind of experiment: aptamer blotting; binding improved over T-SO504.
The target in series [6] is T1, amyloid beta 1-40 oligomer. As to the kind of experiment: ELONA; oligomer immobilised on plate, room temp. Particulars: tags: Peptide Institute peptide, oligomerised from HFIP/water, chain copies: oligomer (stated), label: 5'-FITC. How it is done:
as §1, §2
Further, using the 10T dimer and the original aptamer T-SO530 in a concentration of 1 nM, 2.5 nM, 10 nM, 20 nM, or 60 nM, an experiment for binding the aptamers to the Aβ oligomer was performed in the same manner as above. Based on the obtained binding signals, curve fitting was performed using GraphPad Prism (MDF Co., Ltd.) to calculate a binding dissociation constant (Kd).

Series [7] deals with T3, alpha-synuclein oligomer. As to the kind of experiment: aptamer blotting.

T1 sequence (P05067 672-711, one chain of several): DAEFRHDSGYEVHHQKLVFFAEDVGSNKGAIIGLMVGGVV
Chain of PQQ-dependent glucose dehydrogenase (PQQGDH) (P13650 25-478, one chain of several): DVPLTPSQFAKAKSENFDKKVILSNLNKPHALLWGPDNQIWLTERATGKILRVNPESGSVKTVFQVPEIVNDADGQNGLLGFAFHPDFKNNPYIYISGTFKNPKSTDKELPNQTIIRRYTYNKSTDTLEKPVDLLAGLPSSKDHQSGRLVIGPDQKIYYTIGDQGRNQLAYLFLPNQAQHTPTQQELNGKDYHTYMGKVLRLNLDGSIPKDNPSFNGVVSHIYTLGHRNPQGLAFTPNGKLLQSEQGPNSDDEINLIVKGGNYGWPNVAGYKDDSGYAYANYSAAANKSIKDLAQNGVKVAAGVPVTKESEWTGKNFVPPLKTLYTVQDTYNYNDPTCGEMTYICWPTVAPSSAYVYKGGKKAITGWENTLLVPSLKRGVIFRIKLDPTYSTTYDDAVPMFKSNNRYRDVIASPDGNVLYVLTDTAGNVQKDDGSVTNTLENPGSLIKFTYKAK

B1: 5T dimer (structured_DNA)
DNA: TTTTTGGTGCGGCGGGACTAGTGGGTGTGTTTTTGGTGCGGCGGGACTAGTGGGTGTG
For B1, the binding result in series [1] is given as “binds”.
GCGGTAGGGTGTGAGCGGAAGGGG (structured_DNA) [T-SO602]: in series [2], the binding result was “binds”.
As to GGTGGCTGGAGGGGGCGCGAACG (structured_DNA) [T-SO517], the binding result in series [3] is listed as “no binding”; with C-reactive protein (CRP), “no binding”; in series [2] it was “binds”.
For the molecule GCCTGTGGTGTTGGGGCGGGTGCG (structured_DNA) [T-SO508], in series [2], the binding result is given as “binds”.
AAAAAGGGCAAAGGGAA (ssDNA) [504M2]: the binding result with alpha-synuclein oligomer [4] is “no binding”.

B2: 504W (structured_DNA)
DNA: AAAAACAGGGGTGGGCAAAGGGCGGTGGTGTTTTTCAGGGGTGGGCAAAGGGCGGTGGTG
On to B2, for which the binding result with alpha-synuclein oligomer [5] is reported as “binds”.
Turning to TTTTTGGTGCGGCGGGACTAGTGGGTGTG (structured_DNA) [tT-SO530], in series [6] (G4), the affinity, expressed as Kd, was 9.03 nM.
As for CGAGGGGCGTCTGGGAGTGGTCGG (structured_DNA) [T-SO554], the binding result in series [2] is listed as “binds”.
Consider TTTTTCAGGGGTGGGCAAAGGGCGGTGGTG (structured_DNA) [tT-SO504], for which the binding result with alpha-synuclein oligomer [7] is “binds”.
Take CAGGGGTGGGCAAAGGGCGGTGGTG (structured_DNA) [T-SO504]: the binding result in series [2] is reported as “binds”.

B3: 10T dimer (structured_DNA)
DNA: TTTTTGGTGCGGCGGGACTAGTGGGTGTGTTTTTTTTTTGGTGCGGCGGGACTAGTGGGTGTG
As to B3, in series [6], the Kd was determined as 1.44 nM.
As for GGTGCGGCGGGACTAGTGGGTGTG (structured_DNA) [T-SO530], the binding result in series [2] is listed as “binds”.
Consider GGGTCGGCTGTCCGTGGGTGGGGA (structured_DNA) [T-SO606], for which the figures for the binding result (in series [3]; in the series with C-reactive protein (CRP); in series [2]) were “no binding”, “no binding” and “binds”, respectively.
For the molecule AAAAAGGGTGGGCAAAGGGAA (ssDNA) [504M1], the binding result with alpha-synuclein oligomer [4] is reported as “no binding”.
Consider GCGTGTGGGGCTTGGGCAGCTGGG (structured_DNA) [T-SO552], for which, in series [2], the binding result is reported as “binds”.
